Data reported in paper PMC8237399.

Legend:
[1] = molecular target: filamin C (FLNc) Ig-like domains 23–24, wild type (human); test: cross-linking
[2] = molecular target: filamin C (FLNc) Ig-like domains 23–24, wild type (human); test: SEC-MALS
[3] = molecular target: filamin C (FLNc) Ig-like domains 23–24, wild type (human); test: cross-linking; remark: listed apart in the source

- stoichiometry N [1]: 2
- stoichiometry N [2]: 2
- stoichiometry N [3]: 2
Substance: filamin C (FLNc) Ig-like domains 23–24, wild type (domain or fragment)
